{
  "source": "patent US7413866B2",
  "about": "“Compositions and methods for detecting and treating diseases and conditions related to chemokine receptors” (ChemoCentryx, Inc., priority 2001, dated 2008)",
  "key": {"CCR1 [1]": {"target": "T1, CCR1 (Homo sapiens, UniProt P32246)", "T1 sequence (P32246 1-355)": "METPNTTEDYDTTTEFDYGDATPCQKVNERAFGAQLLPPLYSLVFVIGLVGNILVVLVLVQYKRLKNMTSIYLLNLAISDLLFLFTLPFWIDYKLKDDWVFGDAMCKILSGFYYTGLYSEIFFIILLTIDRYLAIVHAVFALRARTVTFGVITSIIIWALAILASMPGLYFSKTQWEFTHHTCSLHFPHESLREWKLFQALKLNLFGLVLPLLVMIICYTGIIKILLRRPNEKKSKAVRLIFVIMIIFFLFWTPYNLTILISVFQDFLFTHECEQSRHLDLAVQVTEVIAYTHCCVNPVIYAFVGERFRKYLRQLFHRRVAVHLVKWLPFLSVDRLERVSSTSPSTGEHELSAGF", "assay": "Intracellular Ca2+ mobilization via CCR1", "format": "cell-based", "design": "endogenous in cells; host or cells: THP-1, monocytes, neutrophils, immature DC (endogenous); also HEK293-CCR1 and NSO-CCR1 transfectants"}, "CXCR4 on CEM-NKr cells": {"target": "T2, CXCR4 on CEM-NKr cells (Homo sapiens, UniProt P61073)", "T2 construct": "host or cells: CEM-NKr (whole cells)", "T2 sequence (P61073 whole entry)": "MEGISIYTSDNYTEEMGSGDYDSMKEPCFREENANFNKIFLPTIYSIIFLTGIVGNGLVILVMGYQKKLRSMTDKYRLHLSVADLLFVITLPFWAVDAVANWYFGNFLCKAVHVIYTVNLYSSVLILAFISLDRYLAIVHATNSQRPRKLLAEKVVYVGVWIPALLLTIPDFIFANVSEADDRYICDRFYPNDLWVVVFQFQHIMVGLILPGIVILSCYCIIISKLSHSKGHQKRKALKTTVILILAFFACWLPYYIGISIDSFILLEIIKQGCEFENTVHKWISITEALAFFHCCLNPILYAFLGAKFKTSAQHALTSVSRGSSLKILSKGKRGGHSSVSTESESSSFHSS", "assay": "125I SDF-1α competition binding on CEM-NKr cells", "conditions": "cold competitor array", "from_the_text": "Binding Analysis. We employed our technique, DisplaceMax, to examine the global profile of chemokine ligand interaction with CXCR4 on MCF-7 and CEM-NKr cells. This technology employs expanded, efficiency-maximized radioligand binding using filtration protocols as described previously (Kledal T N, et al. Science 277:1656-1659 (1997); Dairaghi, et al. J Biol Chem 274:21569-74 (1999); Gosling, J. et al. J Immunol 164:2851-6 (2000)). […] Where indicated, anti-CXCR4 antibodies or isotype controls were included in the binding reactions. In these experiments cells were pre-incubated with the indicated concentration of antibody for 30 min at 4° C. prior to the addition of radiolabeled chemokine. Small molecules were included in some assays, where indicated. In these assays the compound was added to the plate to the indicated concentration followed by the addition of radiolabeled chemokine. All assays were then incubated for 3 hrs at 4° C. with gentle agitation. […] Scintillant (MicroScint 10, Packard) was added to the wells, and the filters were counted in a Packard Topcount scintillation counter. Data were analyzed and plotted using Prism (GraphPad Prism version 3.0a for Macintosh, GraphPad Software)."}, "CCR1 [2]": {"target": "T1, CCR1", "assay": "CCR1 mediated cell migration", "format": "cell-based"}, "[3]": {"target": "T3, CCR1 expressed on NSO transfectants (human, UniProt P32246 1-355)", "T3 construct": "CCR1 transfectant of NSO cells; also called NSO-CCR1", "T3 sequence": "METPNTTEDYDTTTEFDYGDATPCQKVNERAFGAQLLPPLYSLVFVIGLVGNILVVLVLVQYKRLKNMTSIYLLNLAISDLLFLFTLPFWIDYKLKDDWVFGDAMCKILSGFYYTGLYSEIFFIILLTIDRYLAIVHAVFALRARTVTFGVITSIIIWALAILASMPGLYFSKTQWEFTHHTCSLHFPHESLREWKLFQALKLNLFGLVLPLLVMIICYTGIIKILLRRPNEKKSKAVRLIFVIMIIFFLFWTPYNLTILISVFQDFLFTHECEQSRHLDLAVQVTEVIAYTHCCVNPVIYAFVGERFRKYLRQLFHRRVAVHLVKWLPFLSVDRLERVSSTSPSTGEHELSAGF", "assay": "competition against ^125I MIP-1α on NSO-CCR1 cells"}, "[4]": {"target": "T4, CCR1 expressed on HEK293 transfectants (human, UniProt P32246 1-355)", "T4 construct": "CCR1 cDNA transfected into HEK293 cells; also called HEK293-CCR1", "T4 sequence": "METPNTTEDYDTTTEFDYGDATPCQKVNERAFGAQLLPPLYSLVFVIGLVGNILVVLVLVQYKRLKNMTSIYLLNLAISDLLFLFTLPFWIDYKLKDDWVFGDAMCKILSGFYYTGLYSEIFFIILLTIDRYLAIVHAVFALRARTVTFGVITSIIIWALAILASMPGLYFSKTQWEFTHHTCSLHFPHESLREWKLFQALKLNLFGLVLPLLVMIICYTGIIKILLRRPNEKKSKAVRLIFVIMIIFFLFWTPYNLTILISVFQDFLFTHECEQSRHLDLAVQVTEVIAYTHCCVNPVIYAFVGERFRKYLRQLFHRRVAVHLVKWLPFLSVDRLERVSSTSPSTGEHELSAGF", "assay": "competition against ^125I MIP-1α on HEK293-CCR1 cells"}, "CCR1 on monocytes": {"target": "T5, CCR1 on monocytes (UniProt P32246 1-355)", "T5 chain": "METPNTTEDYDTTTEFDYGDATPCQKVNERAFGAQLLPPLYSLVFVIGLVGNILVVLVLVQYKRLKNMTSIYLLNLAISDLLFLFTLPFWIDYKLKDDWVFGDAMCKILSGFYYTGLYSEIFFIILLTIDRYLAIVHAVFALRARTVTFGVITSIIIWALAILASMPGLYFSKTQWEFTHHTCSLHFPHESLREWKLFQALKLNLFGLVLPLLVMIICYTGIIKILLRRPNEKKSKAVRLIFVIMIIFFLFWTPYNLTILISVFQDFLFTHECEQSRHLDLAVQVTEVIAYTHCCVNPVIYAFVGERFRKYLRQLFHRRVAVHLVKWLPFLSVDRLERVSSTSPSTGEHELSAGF", "assay": "125I MIP-1α competition binding on cells; monocytes"}, "[5]": {"target": "T6, CCR1 on THP-1 cells (acute monocytic leukemia) (UniProt P32246 1-355)", "T6 chain": "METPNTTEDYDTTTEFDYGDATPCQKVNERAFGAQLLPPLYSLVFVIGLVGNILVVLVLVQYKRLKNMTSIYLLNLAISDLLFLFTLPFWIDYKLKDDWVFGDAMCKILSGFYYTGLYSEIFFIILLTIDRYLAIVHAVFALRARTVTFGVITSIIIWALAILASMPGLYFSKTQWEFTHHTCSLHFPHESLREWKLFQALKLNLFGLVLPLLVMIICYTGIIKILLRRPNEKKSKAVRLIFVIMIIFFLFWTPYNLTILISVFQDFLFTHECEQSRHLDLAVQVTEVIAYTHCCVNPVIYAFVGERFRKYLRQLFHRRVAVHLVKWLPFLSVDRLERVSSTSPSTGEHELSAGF", "assay": "125I MIP-1α competition binding on cells; THP-1 cells"}, "[6]": {"target": "T7, CXCR4 on MCF-7 cells (Homo sapiens)", "T7 construct": "host or cells: MCF-7 (whole cells)", "T7 sequence (P25106 whole entry)": "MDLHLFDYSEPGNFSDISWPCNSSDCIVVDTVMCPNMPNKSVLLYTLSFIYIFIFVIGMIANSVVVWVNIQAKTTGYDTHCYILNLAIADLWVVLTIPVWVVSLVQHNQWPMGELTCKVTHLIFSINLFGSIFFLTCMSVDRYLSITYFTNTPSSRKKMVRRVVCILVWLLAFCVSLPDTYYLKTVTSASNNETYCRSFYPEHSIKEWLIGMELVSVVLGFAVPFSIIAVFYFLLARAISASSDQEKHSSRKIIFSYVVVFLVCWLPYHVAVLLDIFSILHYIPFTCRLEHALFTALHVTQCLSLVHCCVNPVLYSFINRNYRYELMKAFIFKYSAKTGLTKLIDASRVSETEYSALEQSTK", "assay": "125I SDF-1α competition binding on MCF-7 cells", "conditions": "cold competitor array", "from_the_text": "Binding Analysis. We employed our technique, DisplaceMax, to examine the global profile of chemokine ligand interaction with CXCR4 on MCF-7 and CEM-NKr cells. This technology employs expanded, efficiency-maximized radioligand binding using filtration protocols as described previously (Kledal T N, et al. Science 277:1656-1659 (1997); Dairaghi, et al. J Biol Chem 274:21569-74 (1999); Gosling, J. et al. J Immunol 164:2851-6 (2000)). […] Where indicated, anti-CXCR4 antibodies or isotype controls were included in the binding reactions. In these experiments cells were pre-incubated with the indicated concentration of antibody for 30 min at 4° C. prior to the addition of radiolabeled chemokine. Small molecules were included in some assays, where indicated. In these assays the compound was added to the plate to the indicated concentration followed by the addition of radiolabeled chemokine. All assays were then incubated for 3 hrs at 4° C. with gentle agitation. Following incubation in all binding assays, reactions were aspirated onto PEI-treated GF/B glass filters (Packard) using a cell harvester (Packard) and washed twice (25 mM HEPES, 500 mM NaCl, 1 mM CaCl2, 5 mM MgCl2, adjusted to pH 7.1). Scintillant (MicroScint 10, Packard) was added to the wells, and the filters were counted in a Packard Topcount scintillation counter. Data were analyzed and plotted using Prism (GraphPad Prism version 3.0a for Macintosh, GraphPad Software)."}, "[7]": {"target": "CXCR4 as expressed on breast tumor cells (MCF-7, MDA MB-231) (human) (UniProt P61073)", "assay": "homologous competition against ^125I I-TAC on MCF-7 cells, medium alone"}, "[8]": {"target": "CXCR4 as expressed on breast tumor cells (MCF-7, MDA MB-231) (human) (UniProt P61073)", "assay": "homologous competition against ^125I I-TAC on MCF-7 cells pre-incubated with excess MIG (~175 nM)"}},
  "data": [
    {"molecule": "MIP-1α: CC chemokine, CCR1 ligand (protein) ADTPTACCFSYTSRQIPQNFIADYFETSSQCSKPGVIFLTKRSRQVCADPSEEWVQKYVSDLELSA", "values": [
      {"measurement": "Ca2+ mobilization in HEK293-CCR1, THP-1 and monocytes", "setting": "CCR1 [1]", "value": "able to mobilize Ca2+"},
      {"measurement": "Ca2+ mobilization in neutrophils", "setting": "CCR1 [1]", "value": "do not mobilize Ca2+"}
    ]},
    {"molecule": "HHV8 vMIP-II: viral recombinant chemokine (protein) LGASWHRPDKCCLGYQKRPLPQVLLSSWYPTSQLCSKPGVIFLTKRGRQVCADKSKDWVKKLMQQLPVTAR", "values": [
      {"measurement": "DisplaceMax displacement of 125I SDF-1α on CEM-NKr, affinity class", "setting": "CXCR4 on CEM-NKr cells", "value": "potential moderate affinity"}
    ]},
    {"molecule": "mMIP-1γ: CCR1 ligand (protein) QITHATETKEVQSSLKAQQGLEIEMFHMGFQDSSDCCLSYNSRIQCSRFIGYFPTSGGCTRPGIIFISKRGFQVCANPSDRRVQRCIERLEQNSQPRTYKQ", "values": [
      {"measurement": "Ca2+ mobilization in HEK293-CCR1, THP-1 and monocytes", "setting": "CCR1 [1]", "value": "able to mobilize Ca2+"},
      {"measurement": "Ca2+ mobilization in neutrophils", "setting": "CCR1 [1]", "value": "do not mobilize Ca2+"}
    ]},
    {"molecule": "CKβ8 (1-99) (ligand, The numbers 1-99 count on the mature chemokine, not on the precursor; also called CCL23 (99-amino acid form)) RVTKDAETEFMMSKLPLENPVLLDRFHATSADCCISYTPRSIPCSLLESYFETNSECSKPGVIFLTKKGRRFCANPSDKQVQVCMRMLKLDTRIKTRKN", "values": [
      {"measurement": "induction of cell migration, neutrophils", "setting": "CCR1 [2]; CCR1 expressed on neutrophils", "value": "does not induce cell migration"},
      {"measurement": "induction of CCR1 mediated cell migration, THP-1 cells, monocytes and immature DC", "setting": "CCR1 [2]; THP-1 cells, monocytes and immature DC", "value": "can induce CCR1 mediated cell migration"},
      {"measurement": "IC50", "setting": "[3]", "value": 3.9, "unit": "nM"},
      {"measurement": "IC50", "setting": "[4]", "value": 64, "unit": "nM"},
      {"measurement": "IC50", "setting": "CCR1 on monocytes", "value": 10.3, "unit": "nM"},
      {"measurement": "IC50", "setting": "[5]", "value": 6.3, "unit": "nM"},
      {"measurement": "Ca2+ mobilization in HEK293-CCR1, THP-1 and monocytes", "setting": "CCR1 [1]", "value": "able to mobilize Ca2+"},
      {"measurement": "Ca2+ mobilization in neutrophils", "setting": "CCR1 [1]", "value": "do not mobilize Ca2+"}
    ]},
    {"molecule": "mI-TAC: murine recombinant chemokine I-TAC (protein) FLMFKQGRCLCIGPGMKAVKMAEIEKASVIYPSNGCDKVEVIVTMKAHKRQRCLDPRSKQARLIMQAIEKKNFLRRQNM", "values": [
      {"measurement": "DisplaceMax displacement of 125I SDF-1α on MCF-7, affinity class", "setting": "[6]", "value": "high affinity"}
    ]},
    {"molecule": "human I-TAC (ligand, UniProt O14625 22-94, looked up, 125I label where used as the radioligand) FPMFKRGRCLCIGPGVKAVKVADIEKASIMYPSNNCDKIEVIITLKENKGQRCLNPKSKQARLIIKKVERKNF", "values": [
      {"measurement": "IC50", "setting": "[7]", "value": 1, "unit": "nM"},
      {"measurement": "IC50", "setting": "[8]", "value": 1, "unit": "nM"}
    ]}
  ]
}
